Reference: US6429304 (University of California, dated 2002)

B1: p80 delta 1-302 (S. purpuratus p80 katanin with the entire WD40 domain deleted), in vitro translated with N-terminal S-Tag (other)
chain: TTGIAQEPQSQPSKTPSGGAEEVPSKPLTASGRKNFVRERPHTTSSKQRQPDVKSEPERQSPTQDEGVKDDDATDIKDPDSYAKIFSPKTRVDHSPERNAQPFPAPLDVPGAQEPEPFKHPPKPAAAAAVAPVSRAPAPSASDWQPAQANPAPNRVPAATKPVPAQEVAPSRKPDPISTIIPSDRNKPANLDMDAFLPPAHAQQAPRVNAPASRKQSDSERIEGLRKGHDSMCQVLSSRHRNLDVVRAIWTAGDAKTSVESVVNMKDQAILVDILNIMLLKKSLWNLDMCVVVLPRLKELLSSKYENYVHTSCACLKLILKNFTSLFNQNIKCPPSGIDITREERYNKCSKCYSYLIATRGYVEEKQHVSGKLGSSFRELHLLLDQLE
notes: the residues kept are derived from the deletion named; also called truncated p80; delta 1-302 derivative of p80; not shown: 37 amino acid N-terminal S-Tag from pCITE-4a+ (Novagen)
B2: baculovirus-expressed S. purpuratus katanin p60 subunit with N-terminal His(6) tag (enzyme)
chain: HHHHHHMSVDEICENTKMGREYALLGNYETSLVYYQGVLQQIQKLLTSVHEPQRKHQWQTIRQELSQEYEHVKNITKTLNGFKSEPAAPEPAPNHRAAPFSHHQHAAKPAAAEPARDPDVWPPPTPVDHRPSPPYQRAARKDPPRRSEPSKPANRAPGNDRGGRGPSDRRGDARSGGGGRGGARGSDKDKNRGGKSDKDKKAPSGEEGDEKKFDPAGYDKDLVENLERDIVQRNPNVHWADIAGLTEAKRLLEEAVVLPLWMPDYFKGIRRPWKGVLMVGPPGTGKTMLAKAVATECGTTFFNVSSASLTSKYHGESEKLVRLLFEMARFYAPSTIFIDEIDSICSKRGTGSEHEASRRVKSELLIQMDGVSGPSAGEESSKMVMVLAATNFPWDIDEALRRRLEKRIYIPLPEIDGREQLLRINLKEVPLADDIDLKSIAEKMDGYSGADITNVCRDASMMAMRRRIQGLRPEEIRHIPKEELNQPSTPADFLLALQKVSKSVGKEDLVKYMAWMEEFGSV
notes: Expressed from pFastBac HT in Sf9 cells; also called p60 katanin; recombinant p60
B3: native S. purpuratus katanin p60 subunit (unfertilized egg extract / cytosol) (enzyme)
chain: MSVDEICENTKMGREYALLGNYETSLVYYQGVLQQIQKLLTSVHEPQRKHQWQTIRQELSQEYEHVKNITKTLNGFKSEPAAPEPAPNHRAAPFSHHQHAAKPAAAEPARDPDVWPPPTPVDHRPSPPYQRAARKDPPRRSEPSKPANRAPGNDRGGRGPSDRRGDARSGGGGRGGARGSDKDKNRGGKSDKDKKAPSGEEGDEKKFDPAGYDKDLVENLERDIVQRNPNVHWADIAGLTEAKRLLEEAVVLPLWMPDYFKGIRRPWKGVLMVGPPGTGKTMLAKAVATECGTTFFNVSSASLTSKYHGESEKLVRLLFEMARFYAPSTIFIDEIDSICSKRGTGSEHEASRRVKSELLIQMDGVSGPSAGEESSKMVMVLAATNFPWDIDEALRRRLEKRIYIPLPEIDGREQLLRINLKEVPLADDIDLKSIAEKMDGYSGADITNVCRDASMMAMRRRIQGLRPEEIRHIPKEELNQPSTPADFLLALQKVSKSVGKEDLVKYMAWMEEFGSV
notes: Endogenous protein of sea urchin eggs; also called 60 kDa polypeptide
B4: baculovirus-expressed S. purpuratus katanin p80 subunit with N-terminal His(6) tag (other)
chain: HHHHHHMATKRAWKLQELVAHSSNVNCLALGPMSGRVMVTGGEDKKVNLWAVGKQNCIISLSGHTSPVDSVKFNSSEELVVAGSQSGTMKIYDLEPAKIVRTLTGHRNSIRCMDFHPFGEFVASGSTDTNVKLWDVRRKGCIYTYKGHSDQVNMIKFSPDGKWLVTASEDTTIKLWDLTMGKLFQEFKNHTGGVTGIEFHPNEFLLASGSSDRTVQFWDLETFQLVSSTSPGASAVRSISFHPDGSYLFCSSQDMLHAFGWEPIRCFDTFSVGWGKVADTVIASTQLIGASFNATNVSVYVADLSRMSTTGIAQEPQSQPSKTPSGGAEEVPSKPLTASGRKNFVRERPHTTSSKQRQPDVKSEPERQSPTQDEGVKDDDATDIKDPDSYAKIFSPKTRVDHSPERNAQPFPAPLDVPGAQEPEPFKHPPKPAAAAAVAPVSRAPAPSASDWQPAQANPAPNRVPAATKPVPAQEVAPSRKPDPISTIIPSDRNKPANLDMDAFLPPAHAQQAPRVNAPASRKQSDSERIEGLRKGHDSMCQVLSSRHRNLDVVRAIWTAGDAKTSVESVVNMKDQAILVDILNIMLLKKSLWNLDMCVVVLPRLKELLSSKYENYVHTSCACLKLILKNFTSLFNQNIKCPPSGIDITREERYNKCSKCYSYLIATRGYVEEKQHVSGKLGSSFRELHLLLDQLE
notes: Expressed from pFastBac HT in Sf9 cells; also called p80 katanin; recombinant p80
B5: p80 delta 303-690 (C-terminal truncation of S. purpuratus p80 katanin containing only the WD40 domain), in vitro translated with N-terminal S-Tag (other)
chain: MATKRAWKLQELVAHSSNVNCLALGPMSGRVMVTGGEDKKVNLWAVGKQNCIISLSGHTSPVDSVKFNSSEELVVAGSQSGTMKIYDLEPAKIVRTLTGHRNSIRCMDFHPFGEFVASGSTDTNVKLWDVRRKGCIYTYKGHSDQVNMIKFSPDGKWLVTASEDTTIKLWDLTMGKLFQEFKNHTGGVTGIEFHPNEFLLASGSSDRTVQFWDLETFQLVSSTSPGASAVRSISFHPDGSYLFCSSQDMLHAFGWEPIRCFDTFSVGWGKVADTVIASTQLIGASFNATNVSVYVADLSRMS
notes: the residues kept are derived from the deletion named; also called delta 303-690 derivative of p80; not shown: 37 amino acid N-terminal S-Tag from pCITE-4a+ (Novagen)

Tests used:
[1] = target: T1, in vitro translated S. purpuratus p60 katanin with 37 amino acid N-terminal S-Tag (Strongylocentrotus purpuratus, UniProt O61577 1-516); experiment: co-translation in rabbit reticulocyte lysate, co-immunoprecipitation with anti-p60 antibody
T1 construct: Made in a rabbit reticulocyte coupled transcription-translation reaction; not shown: 37 amino acid N-terminal S-Tag from pCITE-4a+ (Novagen)
Description: (§1) In vitro synthesis of proteins directly from plasmid DNAs was accomplished using the Single Tube Protein System 2, T7 (Novagen). […] For immunoprecipitations, lysates were incubated on ice with Pansorbin (Calbiochem)-antibody complexes, washed in NET buffer (50 mM Tris-Cl (pH 7.5), 150 mM NaCl, 0.1% Nonidet P40, 1 mM EDTA (pH 8.0), 0.25% gelatin and 0.02% sodium azide), then resuspended in SDS-PAGE sample buffer. In vitro translation products in both the pellets and supernatants from the immunoprecipitations were resolved by SDS-PAGE, transferred to nitrocellulose, probed with S-protein HRP conjugate (Novagen) and detected by chemiluminescence.

[2] = target: the molecule itself; experiment: rotary-shadowing electron microscopy of recombinant p60 on mica
Description: Proteins were adsorbed to mica, freeze-dried, and platinum replicated according to established procedures (Heuser (1989) *J. Electron Microsc. Technique* 13):, 244–263; Heuser (1983) *J. Mol. Biol.* 169: 155–195). Sample preparation and imaging were similar to that used in the imaging of NSF (Hanson et al. (1997) *Cell* 90: 523–535), except that mica flakes were washed with a buffer consisting of 10 mM K-HEPES (pH 7.5), 2 mM MgCl_2, 1 mM nucleotide (ATP or ATP-γ-S).

[3] = target: B4; experiment: co-immunoprecipitation from insect cells coinfected with p60 and p80 baculoviruses
Description: Proteins bound to the resin were analyzed by SDS-PAGE followed by staining with Coomassie.
The immunoprecipitations were incubated at 4° C. for 1–2 hr, washed five times with 1 ml of ice-cold TBST, and eluted in SDS-containing sample buffer.

[4] = target: T2, native S. purpuratus katanin p80 subunit (sea urchin cytosol) (Strongylocentrotus purpuratus, UniProt O61585 1-690); experiment: immunoprecipitation from sea urchin cytosol
T2 construct: Endogenous protein of sea urchin eggs
T2 sequence: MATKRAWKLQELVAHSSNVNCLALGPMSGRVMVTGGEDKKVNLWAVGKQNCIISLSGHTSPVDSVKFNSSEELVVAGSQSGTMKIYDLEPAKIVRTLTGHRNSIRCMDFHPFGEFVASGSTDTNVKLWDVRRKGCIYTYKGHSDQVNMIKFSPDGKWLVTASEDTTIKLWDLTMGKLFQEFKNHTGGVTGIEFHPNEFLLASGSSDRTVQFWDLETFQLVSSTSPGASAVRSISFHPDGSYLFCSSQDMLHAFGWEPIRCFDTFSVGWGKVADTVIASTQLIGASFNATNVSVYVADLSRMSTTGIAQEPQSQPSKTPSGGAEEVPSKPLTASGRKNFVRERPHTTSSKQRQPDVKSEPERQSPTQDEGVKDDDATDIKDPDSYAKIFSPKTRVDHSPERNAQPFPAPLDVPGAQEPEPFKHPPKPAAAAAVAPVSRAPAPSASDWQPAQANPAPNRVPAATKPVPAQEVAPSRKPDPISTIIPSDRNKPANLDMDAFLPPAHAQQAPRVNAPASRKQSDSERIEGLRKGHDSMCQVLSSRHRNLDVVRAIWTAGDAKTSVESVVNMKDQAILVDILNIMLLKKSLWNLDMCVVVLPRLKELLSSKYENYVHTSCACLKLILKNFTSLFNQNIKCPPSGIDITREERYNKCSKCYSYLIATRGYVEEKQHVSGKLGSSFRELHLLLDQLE

[5] = target: B2; experiment: baculovirus co-expression, metal affinity purification, Coomassie staining
Text: We therefore sought to express the two subunits together and separately and then test their enzymatic activities.

[6] = target: T1, in vitro translated S. purpuratus p60 …; experiment: co-translation in rabbit reticulocyte lysate, immunoprecipitation with anti-p60 antibody
Description: as §1

Binder: B1
- binding result [1]: binds

Binder: B2
- binding result [2]: binds
- binding result [3]: binds

Binder: B3
- binding result [4]: binds

Binder: B4
- p60:p80 molar ratio in the purified co-expressed protein [5]: ~0.9 mol p80 per mol p60

Binder: B5
- binding result [6]: no binding
